Results: patent US20260078196A1 (TJ BIOPHARMA SHANGHAI, published 2026)
One block for each binder: values may come before it.

How the values were obtained:
human CLDN6 on cells [1] = molecular target: T1, human CLDN6 on cells (human, UniProt P56747 1-220); experiment: flow cytometry (GMFI) on CHO-K1-CLDN6 cells
T1 construct: CHO-K1 cells stably expressing human CLDN6, and OVCAR3 / OV90 cells with endogenous CLDN6; also called CHO-K1-CLDN6; CLDN6 on OVCAR3 and OV90 cells
T1 sequence: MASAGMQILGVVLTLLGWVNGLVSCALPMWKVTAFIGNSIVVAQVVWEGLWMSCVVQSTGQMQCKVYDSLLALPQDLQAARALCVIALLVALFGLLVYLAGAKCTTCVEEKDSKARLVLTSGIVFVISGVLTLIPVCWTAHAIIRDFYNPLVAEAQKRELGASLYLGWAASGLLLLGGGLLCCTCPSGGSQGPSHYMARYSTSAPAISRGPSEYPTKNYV

human CLDN6 on cells [2] = molecular target: T1, human CLDN6 on cells; experiment: flow cytometry (GMFI) on OVCAR3 cells
human CLDN6 on cells [3] = molecular target: T1, human CLDN6 on cells; experiment: flow cytometry (GMFI) on OV90 cells
human MUC16 on cells [4] = molecular target: T2, human MUC16 on cells (human, UniProt Q8WXI7 1-14507); experiment: flow cytometry (MFI GeoMean) on OVCAR3 cells, nM is the unit of the x axis Log10[Ab] (nM)
T2 construct: whole, on cells; also called huMUC16; MUC16 on OVCAR3 and SNU216 cells

human MUC16 on cells [5] = molecular target: T2, human MUC16 on cells; experiment: flow cytometry (MFI GeoMean) on SNU216 cells, nM is the unit of the x axis Log10[Ab] (nM)
[6] = molecular target: T3, HEK293-MUC16 (13810-14507) (human, UniProt Q8WXI7 13810-14507); experiment: flow cytometry (MFI GeoMean) on HEK293-MUC16 (13810-14507) cells; the curve lies on the Iso curve up to about 4 nM and reaches only about 8000 at 100 nM against 40000-75000 for the others; paragraph 397 says h3A5 does not bind these cells; no unit in the table, nM from the x axis
T3 construct: range 13810-14507; also called MUC16 overexpressed HEK293 cells
T3 sequence: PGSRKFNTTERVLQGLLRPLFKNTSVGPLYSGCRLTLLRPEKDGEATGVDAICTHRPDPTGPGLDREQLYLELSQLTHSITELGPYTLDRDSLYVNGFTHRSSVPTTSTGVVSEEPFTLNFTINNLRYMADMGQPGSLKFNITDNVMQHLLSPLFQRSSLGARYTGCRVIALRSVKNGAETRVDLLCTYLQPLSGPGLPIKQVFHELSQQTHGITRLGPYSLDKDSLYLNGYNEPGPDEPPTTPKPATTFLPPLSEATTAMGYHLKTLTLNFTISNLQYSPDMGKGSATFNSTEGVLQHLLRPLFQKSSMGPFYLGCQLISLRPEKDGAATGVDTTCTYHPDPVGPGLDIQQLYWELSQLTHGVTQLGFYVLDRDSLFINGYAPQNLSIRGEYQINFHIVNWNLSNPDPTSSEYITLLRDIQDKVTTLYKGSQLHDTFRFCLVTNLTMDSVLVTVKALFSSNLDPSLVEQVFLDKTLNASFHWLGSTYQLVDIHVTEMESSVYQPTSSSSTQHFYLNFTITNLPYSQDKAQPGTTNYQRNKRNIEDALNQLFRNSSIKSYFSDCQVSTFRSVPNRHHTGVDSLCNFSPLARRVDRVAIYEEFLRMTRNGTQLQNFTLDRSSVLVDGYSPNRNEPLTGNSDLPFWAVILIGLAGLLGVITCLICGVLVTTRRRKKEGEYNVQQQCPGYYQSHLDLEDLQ

[7] = molecular target: T4, soluble recombinant human 4-1BB (human, UniProt Q07011 24-186); experiment: ELISA (OD450) on soluble recombinant human 4-1BB
T4 construct: ELISA antigen

monomeric human 4-1BB [8] = molecular target: T5, monomeric human 4-1BB (human, UniProt Q07011 24-186, limits assumed); experiment: SPR, monomeric human 4-1BB
T5 construct: SPR analyte/ligand

4-1BB on cells = molecular target: T6, 4-1BB on cells (human, UniProt Q07011 24-255); experiment: flow cytometry (GMFI) on HEK293T-4-1BB cells
T6 construct: Species is stated as human for section 2.2 as a whole, not for each cell line; also called HEK293 cells expressing 4-1BB; 4-1BB overexpressed HEK293 cell

monomeric human 4-1BB [9] = molecular target: T5, monomeric human 4-1BB; experiment: SPR, measured in parallel
human MUC16 on cells [10] = molecular target: T2, human MUC16 on cells; experiment: flow cytometry (GMFI) on OVCAR3 cells, nM is the unit of the x axis Log10[Ab] (nM)
human MUC16 on cells [11] = molecular target: T2, human MUC16 on cells; experiment: flow cytometry (GMFI) on OVCAR3 cells; same value as in FIG. 11A, nM is the unit of the x axis
[12] = molecular target: T3, HEK293-MUC16 (13810-14507); experiment: flow cytometry (MFI GeoMean) on HEK293-MUC16 (13810-14507) cells, nM is the unit of the x axis Log10[Ab] (nM)
huMUC16, AA13789-14451 = molecular target: T7, huMUC16, AA13789-14451; experiment: binding ELISA on huMUC16 AA13789-14451
T7 construct: also called MUC16 Antigen (human MUC16 AA13789-14451)
T7 chain: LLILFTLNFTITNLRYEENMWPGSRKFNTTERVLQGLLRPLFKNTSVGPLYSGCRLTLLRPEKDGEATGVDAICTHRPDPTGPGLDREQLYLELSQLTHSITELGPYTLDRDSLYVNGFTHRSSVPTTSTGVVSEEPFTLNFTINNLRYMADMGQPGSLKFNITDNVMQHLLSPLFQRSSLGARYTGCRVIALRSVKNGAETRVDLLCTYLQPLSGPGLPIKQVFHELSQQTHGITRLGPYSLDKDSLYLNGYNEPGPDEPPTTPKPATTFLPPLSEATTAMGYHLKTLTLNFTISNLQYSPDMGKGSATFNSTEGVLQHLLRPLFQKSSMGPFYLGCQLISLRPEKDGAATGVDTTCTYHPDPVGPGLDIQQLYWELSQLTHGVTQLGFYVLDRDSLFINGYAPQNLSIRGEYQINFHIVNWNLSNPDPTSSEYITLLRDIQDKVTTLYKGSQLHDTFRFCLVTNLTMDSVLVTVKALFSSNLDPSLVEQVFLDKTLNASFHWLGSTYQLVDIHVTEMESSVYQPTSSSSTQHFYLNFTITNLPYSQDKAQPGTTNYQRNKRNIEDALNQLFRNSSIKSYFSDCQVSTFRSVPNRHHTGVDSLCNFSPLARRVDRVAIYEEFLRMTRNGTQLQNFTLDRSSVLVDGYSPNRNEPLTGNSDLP

huMUC16, AA14198-14507 = molecular target: T8, huMUC16, AA14198-14507; experiment: binding ELISA on huMUC16 AA14198-14507
T8 chain: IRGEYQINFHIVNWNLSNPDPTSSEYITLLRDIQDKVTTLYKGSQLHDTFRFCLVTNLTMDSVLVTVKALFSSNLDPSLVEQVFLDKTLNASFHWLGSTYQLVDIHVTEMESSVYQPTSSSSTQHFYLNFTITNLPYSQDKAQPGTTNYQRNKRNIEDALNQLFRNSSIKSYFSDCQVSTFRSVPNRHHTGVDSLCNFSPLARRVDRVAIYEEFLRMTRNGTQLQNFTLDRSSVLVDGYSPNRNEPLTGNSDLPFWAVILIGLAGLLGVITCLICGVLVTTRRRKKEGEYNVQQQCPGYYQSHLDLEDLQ

T5 sequence (Q07011 24-186 limits assumed): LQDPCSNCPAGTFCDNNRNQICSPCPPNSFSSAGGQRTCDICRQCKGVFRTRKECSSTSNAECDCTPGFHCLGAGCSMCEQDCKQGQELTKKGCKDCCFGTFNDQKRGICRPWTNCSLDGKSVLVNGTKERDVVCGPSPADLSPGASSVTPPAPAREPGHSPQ
T4 sequence (Q07011 24-186 limits assumed): as above
T6 sequence (Q07011 24-255): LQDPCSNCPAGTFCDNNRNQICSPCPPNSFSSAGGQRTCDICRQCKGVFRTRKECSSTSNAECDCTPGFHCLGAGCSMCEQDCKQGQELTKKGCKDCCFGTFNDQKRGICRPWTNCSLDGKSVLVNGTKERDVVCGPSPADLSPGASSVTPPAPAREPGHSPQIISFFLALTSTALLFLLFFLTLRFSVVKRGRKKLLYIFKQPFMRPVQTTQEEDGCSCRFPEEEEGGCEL

B2: 3A5 (antibody, human IgG1, kappa, V domains shown)
VH: EVQLVESGGGLVQPGGSLRLSCAASGYSITNDYAWNWVRQAPGKGLEWVGYISYSGYTTYNPSIKSRFTISRDTSKNTLYLQMNSLRAEDTAVYYCARWTSGLDYWGQGTLVTVSS
VL: DIQMTQSPSSLSASVGDRVTITCKASDLIHNWLAWYQQKPGKAPKLLIYGATSLETGVPSRFSGSGSGTDFTLTISSLQPEDFATYYCQQYWTTPFTFGQGTKVEIKR
notes: Benchmark anti-MUC16 antibody; printed both as h3A5 and 3A5; also called h3A5; benchmarker 3A5
- EC50 (human MUC16 on cells [4]): 0.799 nM
- EC50 (human MUC16 on cells [5]): 0.571 nM
- EC50 [6]: 63.4 nM

B4: M16-2 (antibody, human IgG1, kappa, N297A, V domains shown)
VH: EVQLVESGGGLEQPGRSLRLSCTASGFAFGDHTMSWVRQAPGKGLEWVGFIRSRAYGGTTEYAASVKGRFTISRDDSKSIAYLQMDSLKTEDTAVYYCTSGGYDSSLHYYYYYHGMDVWGRGTTVTVSS
VL: not shown
notes: Benchmark anti-MUC16 antibody; also called benchmarker antibody M16-2
- EC50 (human MUC16 on cells [10]): 0.257 nM
- EC50 (human MUC16 on cells [11]): 0.257 nM
- EC50 [12]: 0.423 nM
- EC50 (human MUC16 on cells [4]): 0.274 nM
- binding result (huMUC16, AA13789-14451): binds
- EC50 (human MUC16 on cells [5]): 0.152 nM
- binding result (huMUC16, AA14198-14507): no binding (tested: 100 nM)

Further lines, results first:

- EC50 (human CLDN6 on cells [1]): 0.452 nM
- EC50 (human CLDN6 on cells [2]): 5.1 nM
- EC50 (human CLDN6 on cells [3]): 1.2 nM
B1: parental CLDN6-1 antibody (antibody, V domains shown)
VH: QVQLQESGPGLVKPSETLSLTCTVSGYSITSGYYWNWIRQPPGKGLEWMGYISYSGSNNYNPSLKNRVTISRDTSKNQFSLKLSSVTAADTAVYYCARGGYYFDYWGQGTLVTVSS
VL: DIVMTQSPDSLAVSLGERATINCKSSQSLLNTNNQKNYLAWYQQKPGQPPKLLIYFASTRESGVPDRFSGSGSGTDFTLTISSLQAEDVAVYFCQQHYNAPRTFGGGTKVEIK

- EC50 [7]: 0.071 nM
- kon (monomeric human 4-1BB [8]): 383000 M⁻¹ s⁻¹
- EC50 (4-1BB on cells): 0.131 nM
- Kd (monomeric human 4-1BB [9]): 4.39 nM
B3: parental anti-4-1BB sdAb antibody conjugated with IgG1 Fc fragment (Fc fusion)
chain: QVQLQESGGGLVQPGGSLRLSCAASGYTYSSNCMGWFRQAPGKGLEGVAVICTGGGSPSYADSVKGRFTISRDNAKNTLYLQMNSLRAEDTAVYYCAADLLRAGTPLSSYEFNYWGQGTLVTVSS
notes: also called 4-1BB sdAb-Fc; not shown: IgG1 Fc fragment
